The EC50 (read off the curve) is the concentration that produces a half-maximal response.

The text below walks through data of patent publication US20250298032A1 (INSTITUTE FOR RESEARCH IN BIOMEDICINE, published 2025).

One test addresses T1, CXCL13 N-loop peptide (human, biotin-Ahx at the N-terminus; amidated at the C-terminus).
T1 construct: Synthetic peptide, captured on Neutravidin-coated ELISA plates
T1 peptide: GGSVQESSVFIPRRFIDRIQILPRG
As to the kind of experiment: ELISA, biotinylated CXCL13 N-loop peptide on neutravidin plate, anti-human IgG-HRP, OD450 nm. As to the method:
(§1) To evaluate the antibodies' binding to chemokine peptides, 96-well plates (ThermoFisher, 442404) were coated with 50 μl per well of a 2 μg/ml Neutravidin (Life Technologies, 31000) solution in PBS, overnight at room temperature. Plates were washed 4 times with washing buffer (PBS+0.05% Tween-20 [Sigma-Aldrich]) and incubated with 50 μl per well of a 50 nM biotinylated peptide solution in PBS for 1 h at room temperature. After washing 4 times with washing buffer, plates were incubated with 200 μl per well of blocking buffer (PBS+2% BSA+0.05% Tween-20) for 2 h at room temperature. Plates were then washed 4 times with washing buffer, and serial dilutions of monoclonal antibodies or plasma were added in PBS +0.05% Tween-20 and incubated for 1 h at room temperature. To screen for the presence of anti-chemokine IgGs, plasma samples were assayed (unless otherwise stated) at 1:50 starting dilution followed by 3 fourfold serial dilutions (1:200, 1:800, 1:3200). Monoclonal antibodies were tested at 5 μg/ml starting concentration followed by 11 threefold serial dilutions. Plates were subsequently washed 4 times with washing buffer and incubated with anti-human IgG secondary antibody conjugated to horseradish peroxidase (HRP) (GE Healthcare, NA933) at a 1:5000 dilution in PBS+0.05% Tween-20. Finally, after washing 4 times with washing buffer, plates were developed by the addition of 50 μl per well of the HRP substrate TMB (ThermoFisher, 34021) for 9 min. The developing reaction was stopped with 50 μl per well of a 1 M H₂SO₄ solution, and absorbance was measured at 450 nm with an ELISA microplate reader (BioTek) with Gen5 software. A positive control (broadly reactive plasma from donor CLM70) and a negative control (uninfected participant) samples were included in each experiment. The Area Under the Curve (AUC) was obtained from two independent experiments and plotted with GraphPad Prism.
(ELISA stands for enzyme-linked immunosorbent assay.)

A further test concerns the target T2, CXCL16 N-loop peptide (human, biotin-Ahx at the N-terminus; amidated at the C-terminus).
T2 construct: Synthetic peptide, captured on Neutravidin-coated ELISA plates
T2 peptide: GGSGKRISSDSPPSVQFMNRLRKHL
As to the kind of experiment: ELISA, biotinylated CXCL16 N-loop peptide on neutravidin plate, anti-human IgG-HRP, OD450 nm. As to the method:
as §1

B1: aCXCL13.002 (antibody, V domains shown)
VH: EVQLVESGGGLVKPGGSLRLSCAASGFTFSSYSMNWVRQAPGKGLEWVSSISSSSSYIYYADSVKGRFTISRDNAKNSLYLQMNSLRAEDTAVYYCARDGIYDYAPVDYWGQGTLVTVSS
VL: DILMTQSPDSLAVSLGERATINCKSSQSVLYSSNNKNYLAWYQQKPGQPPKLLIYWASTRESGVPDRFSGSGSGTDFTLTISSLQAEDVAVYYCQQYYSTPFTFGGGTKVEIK
notes: also called anti-CXCL13 N-loop antibody
With B1, in the test with CXCL13 N-loop peptide, the binding result was “binds”.

B2: aCXCL16.001 (antibody, human IgG1, V domains shown)
VH: EVQLVESGGGLVKPGESLTLSCVASGYPFANAWMSWVRQAPGKGLEWVGRIKTKSEGETTDYAPLVRGRFTISRDDSKTTVFLQMNSLKTEDTGMYYCTTVFFWGRGTLVTVSS
VL: SYELTQPPSVSVSPGQTARITCSGDALSQQYLFWHQQRPGQAPKVVISKDTERPSGIPERFSGSISGTTGTLTISGVQTEDEADYYCHSTDISDSYWVFGGGTKLTVL
notes: also called anti-CXCL16 N-loop antibody
For B2, the “EC50 (read off the curve)” value with CXCL16 N-loop peptide is around 0.1 µg/mL.

B3: aCXCL13.003 (antibody, V domains shown)
VH: QVQLQEWGAGLLKPSETLSLTCAVYGGSFSGYYWSWIRQPPGKGLEWIGEINHSGSTNYNPSLKSRVTISVDTSKNQFSLKLSSVTAADTAVYYCARAGRSYGDYGAFDIWGQGTMVTVSS
VL: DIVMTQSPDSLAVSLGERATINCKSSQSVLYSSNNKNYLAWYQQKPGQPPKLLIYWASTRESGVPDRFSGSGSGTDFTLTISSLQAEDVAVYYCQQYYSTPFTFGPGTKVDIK
notes: as for B1
Consider B3, for which the binding result in the test with CXCL13 N-loop peptide is given as “binds”.

B4: aCXCL16.002 (antibody, human IgG1, V domains shown)
VH: EVQLVESGGGLSQPGWSLRLSCAASGLTVTRNYMSWVRQAPGKGLEWVSTLWTDGQKFYADSVKGRFTVSRDSYTNTLNLEMSGLRAEDTAVYFCTRDKVVPVRITPDYHYYGMDVWGQGTTVTVSS
VL: DIQLTQSPSFLSASVGDRVTITCRASQGVRRYLAWYQQKPGKAPKFLIYGASSLHTGVPSRFSGGGSDTEFTLTISNLQTEDFATYYCQQLDTYPLTFGGGTKVEIK
notes: as for B2
Take B4: the binding result with CXCL16 N-loop peptide is “binds”.

B5: aCXCL16.003 (antibody, human IgG1, V domains shown)
VH: EVQLVQSGAEVKKPGESLKISCKGSGYSFTSYWIGWVRQMPGKGLEWMGIIYPGDSDTRYSPSFQGQVTISADKSISTAYLQWSSLKASDTAMYYCARLHGDLYYFDYWGQGTLVTVSS
VL: QSVLTQEASVSGTVGQKVTLSCTGNSNNVGSYAVGWYQQISHGAPKTVMFGNSLPSGIPDRFSGSKSGTTASLTISGLQPEDEADYYCSTWDYSLSAQVFGGGTKLTVL
notes: as for B2
Turning to B5, in the test with CXCL16 N-loop peptide, the “EC50 (read off the curve)” value was around 0.2 µg/mL.
